# Test results taken from patent US20230340439, “SYNTHETIC MINIATURE CRISPR-CAS (CASMINI) SYSTEM FOR EUKARYOTIC GENOME ENGINEERING” (The Board of Trustees of the Leland Stanford Junior …, published 2023).
# Where a chain is given by its changes, count along the chain named.
# T1: dCas14-VPR (dUn1Cas12f1-VPR) (UniProt A0A482D308 SEQ:1-529)
# T1 chain: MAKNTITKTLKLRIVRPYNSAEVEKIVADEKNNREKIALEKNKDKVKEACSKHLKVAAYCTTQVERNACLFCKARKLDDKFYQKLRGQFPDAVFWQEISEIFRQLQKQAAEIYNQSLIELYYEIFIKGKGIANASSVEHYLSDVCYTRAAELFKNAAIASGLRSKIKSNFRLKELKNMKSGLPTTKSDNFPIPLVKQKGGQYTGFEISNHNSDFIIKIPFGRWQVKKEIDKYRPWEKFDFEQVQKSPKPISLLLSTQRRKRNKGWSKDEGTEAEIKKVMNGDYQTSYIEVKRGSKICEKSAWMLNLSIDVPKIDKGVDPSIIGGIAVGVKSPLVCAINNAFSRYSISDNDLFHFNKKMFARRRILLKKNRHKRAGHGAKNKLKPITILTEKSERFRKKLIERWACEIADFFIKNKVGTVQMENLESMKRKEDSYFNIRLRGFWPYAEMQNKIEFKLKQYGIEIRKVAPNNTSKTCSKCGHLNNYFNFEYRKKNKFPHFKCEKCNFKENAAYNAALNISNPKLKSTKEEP
# T2: dCasMINI-V3-VPR (D143R/T147R/K330R) (UniProt A0A482D308 SEQ:1-529)
# T2 chain: T1 chain with D143R, T147R, K330R
# T3: dCasMINI-V2-VPR (D143R/T147R) (UniProt A0A482D308 SEQ:1-529)
# T3 chain: T1 chain with D143R, T147R
# T4: dCasMINI-V1-VPR (D143R) (UniProt A0A482D308 SEQ:1-529)
# T4 chain: T1 chain with D143R
# T5: dCasMINI-V4-VPR (D143R/T147R/K330R/E528R) (UniProt A0A482D308 SEQ:1-529, D326A,D510A)
# T5 sequence: T1 chain with D143R, T147R, K330R, E528R
# B1: sgRNA Design 2 (stem-loop truncation) targeting TRE3G ; TRE3G promoter target (ssRNA ; dsDNA)
# RNA: GGGCUUCACUGAUAAAGUGGAGAACCGCUUCACCAAAAGCUGUCCCUUAGGGGAUUAGAACUUGAGUGAAGGUGGGCUGCUUGCAUCAGCCUAAUGUCGAGAAGUGCUUUCUUCGGAAAGUAACCCUCGAAACAAAUUCAUUUGAAUGAAGGAAUGCAACCUCCCUAUCAGUGAUAGAGAACG
# DNA 1: TTTACTCCCTATCAGTGATAGAGAACGTAT
# DNA 2: ATACGTTCTCTATCACTGATAGGGAGTAAA
# modifications: [-]
# What was measured:
# [1] = biological target: T1, dCas14-VPR (dUn1Cas12f1-VPR); test: cell_activity; GFP activation, 3% GFP+ cells; PAM TTTR; conditions: chain copies: 2
# Method: (§1) Using a doxycycline (Dox)-inducible TRE3G-EGFP HEK293T reporter cell line and a sgRNA targeting the promoter, activation efficiency of dCas14-VPR was measured. Wild-type HEK293T cells (ATCC) and the HEK293T TRE3G-GFP reporter line stably encoding EGFP under a Tet-On promoter (pTRE3G) (Y. Gao et al., Genome Res. 22, (2012): 1760-74) were cultured in DMEM with high glucose, sodium pyruvate and GlutaMAX (Thermo Fisher), additionally supplemented with 10% FBS (Sigma). Cells were grown at 37° C. and 5% CO₂ and maintained at confluency below 80%. All transfections were performed with TransIT-LT1 transfection reagent (Mirus) at a ratio of 3 µL reagent per µg of plasmid. Cells were plated 1 day before at 1×10⁵ cells/mL. For this and other GFP activation assays described in these Examples, 500 ng of dCas constructs and 250 ng sgRNA or crRNA plasmids were transfected to HEK293T TRE3G-GFP cells in 24-well plates. Transfected cells were analyzed 2 days post-transfection for GFP activation. Here, no reporter activation was observed (FIG. 3), implying the natural Cas14 system fails to function in the human genome context.
# [2] = biological target: T2, dCasMINI-V3-VPR (D143R/T147R/K330R); test: cell_activity; GFP activation; PAM TTTR
# Method: as §1
# [3] = biological target: T3, dCasMINI-V2-VPR (D143R/T147R); test: cell_activity; GFP activation; PAM TTTR; conditions: chain copies: 2
# Method: as §1
# dCasMINI-V1-VPR (D143R) = biological target: T4, dCasMINI-V1-VPR (D143R); test: cell_activity; GFP activation; PAM TTTR; conditions: chain copies: 2
# Method: as §1
# [4] = biological target: T5, dCasMINI-V4-VPR …; test: cell_activity; GFP activation; 1.15-fold over V3 in screen; PAM TTTR; conditions: tags: N-terminal SV40 NLS, C-terminal c-Myc NLS, mCherry
binder,measurement,setting,value
B1,activity,[1],3.6 fold over non-targeting
same,activity,[2],1.26 fold over D143R/T147R
same,activity,[3],1.55 fold over best single variant
same,activity,dCasMINI-V1-VPR (D143R),> 24 fold over dCas14-VPR
same,activity,[4],244 fold activation
